B1: SEQ ID NO: 206: Phytophthora sojae (strain P6497) carboxylate reductase (protein)
chain: MGAGSSSELPMSQIDFDSYTGKRYTVEVPNTRDATHGPAYEVADKEPVNEDEMTLYHNFLRGCSIEHGTRPLYGRRTVDADTGKAGAFEWLTYNEVKTRVERVASGLKAVGALERQDVVGVFSKNQLEWCLVAHACDRMSYVLVPLYDTLGPDAVPFIVNHTELRVLFCGKKQFDVVMDCVKDCPTLKTIVQFEPVTEQQIQQAAAKNLELRSLEELELLGEADPKRADPPKPTDVSTLCYTSGTTGDPKGVILLQRNYAYVVRQMCKRMQIFPSDVHCSYLPLAHVFERSVLGVLQAHGASAGFYQGDLLTLMDDLVELKPTVFVSVPRLFNRVYDKITQGVAAAGGLKKILFDRALAAKLAGLPEGHKTHALWDALVFSKVRLALGGRVRLIFSGSAPLSAEVKEFMKVVFCCDVAEGYGLSETAAAVTVGSVDMPMGPHVGCPLIYGQVQLEDVPEMGYTSRDKPRPRGEILVKGPMIFSGYYKEPEKTREAIDERGWFHTGDIGCWNADGTLSIIDRKKNIFKLAQGEYVAAEKIENIYAKSKYVAQIFAYGDSLQSCLVGIVVPDPETAEAWAQEKGLTGADASAAKVATNPEFQKAVLADMARVAKEAQLRGFEFVKSVHFHPEPFSLEQGLITPTFKLKRPQLKAHFQQQINMLYEGLK
modifications: Phytophthora sojae (strain P6497)
notes: Phytophthora sojae (strain P6497) carboxylate reductase
B2: SEQ ID NO: 197: Cyberlindnera jadinii carboxylate reductase (protein, listed as Cyberlindnera jadinii)
chain: MNFNQPVNPQPVPGSRVEGYSEIFTNDPPVVLDPSMDTLSKMWNNAVANFANFDCMGVRKFHNTRKQQLDTFFTYDSYAEVDRKKHNISCGIIHLVTHHPKYRELLSIAGKPEFVVGILSPNRYEWMLVDLATRDFSLTNTALYPTLGQQSSQYILSVTESPIIFLTKDQIPKILEIKPELPLLNILVSLDDFDHDDHDLFVRAQSLGVSLVDFRAVEKIGERHPLPKDFNPPTTDTIYTISFTSGTTGNPKGVLIPHEMAACGIISCTMGLESPFELPKGAKRRQFGENVDQHGVQVTALCHLPLAHIYEREISNYALMSGFRLGFPSSTNPAMFFDDLKSIKPHYLASVPRVYNKLDALLKAKVKRGTPPHVVRKTFGLDHCRYLVSGSAPLGVETIKYLKQTLDIGFSVCYGSTETFAGFFFGDAFEDVITNSCGHPSASVQIRLRDVPEMGYHTNETPMRGELMVKGPQVFSEYFKNPKATADSFDKDGWFHTGDIVSMDSERRVYIIDRVKNFFKLQQGEFVTPERIENIYLAHSPLLTQLFVHGDSLQNFLVGVAGISLEYVQEMFKQDFGVAISQDEVLGLLQDPKYKAMLIKQLNHHVSGADLQGFEKIHNIHVDLEPLRLEDEVLTPTMKIKRENAKKKFAPILEKLYTEGSLVVKQKL
B3: SEQ ID NO: 196: Chromera velia CCMP2878 carboxylate reductase (protein)
chain: MGAQCSAKNSLTYSIPYGEPQAEDESALYANPYMPELAGCDGLKSCWENFEVAVSSTGDKPAVGTREKQADGTLGKYVWKSWKEVAETVANLHAGLQSLDAFPLQSFPEESVQQTFKFLGVTGKNREEYLETMLAAYRAGVCLVPLYDTLGENTYEYCINQTGLKTVIVGDLKIASKLLHVAKKCECFKIIVCMDAVSDELKQEANASGVTIHSFEEVCEIGKQKPVDPTPAQSDMEINTICYTSGTTGNPKGVLVTHRALLTALSTSDELFKKEGFKIDFNDTHISYLPYAHVMERAVTEICVRRGMRIAFYSGDTTKIVDDIQLARPTVFFSVPRLYTRIYDRILSQAAAAGGIKKSLFDRALESKLTELRSTGNFTHKLWDAIVFSKIKDVLGGRVRFLVTGSAPMAKEVQEVLKVCFCCPMMEAFGMTETACCGTATAALDPTTGHVGGVVPGILLKVKGIPEMGYSPNDRGENGELMPRGELMVKGAAVFPGYFKEPEKTKEALDADGWLRTGDVCVINPNGSFKIIDRAKNIFKLAQGEYVAPEKIENIYIQCESVAQAFVTGYGTEKVLVCVVVPDEGYAKNWAKEKGLEGDAASLSALCATHGDLEAEVFKQIDAIGKARGLSGIEKAKAVRLYAEPFSVENDLLTATFKLKRHQANKTFKAQIDEMYAELNAKEKARGGS
modifications: Chromera velia CCMP2878
notes: Chromera velia CCMP2878 carboxylate reductase
B4: SEQ ID NO: 198: Pestalotiopsis fici W106-1 carboxylate reductase (protein)
chain: MESYIEKARRYAQPPPPGAPQGVAVPNSKLPGRSAVYRHWRRGDELPDYFDPDLSSGYDMFEQTAKRQPDARCLGYRPYNGSTKSFGPYIWYSYDNVLKRSTDFGKGLAELLEANGVGGRQRPVGLWCANRPEWQFVDLGAMSQSLYSISLYETLGPAATEFLINHAEIPVVCASLEHIPALILAAPRCPSLKLIISLDPLTEEIDAPGTSRKELLSSLAAEKGLQVHDFRDVEKAGQASSRSLNRPRPDDIFTINYTSGTTGNPKGVVLRHSNAVAATVTCLTVYPMRSSDVLCSYLPLAHIYERFVEISAMYGGGSIGYFHGNPLELIDDLKLLRPTIFTSVPRLLNRMGSSIKAATIEQQGVKGALSRYIMETKMANIENDDPAKATNKHMVYDRIWGRKITAALGLDRTVHMMSGSAPLDGGLQQFLRIVFATEIVQGYGSTEMFAICLAQSAGDMSVRNCGGPAACVEVCLLDLPDMGYFSSDQPCPRGELLMRGPNVFSEYYKDDEETSKAFTEDGWFKTGDICAVDELGRFSIIDRRKNLLKLAQGEYISPEHIENVLLAQRPWLAQGYVHGDSAEAHLVGIFGVQPDIFCNFLNRTLGKECKPEDTDQLEAVLQEPEVRSAVVKELAMVGKSAKLNSYEIPRAVRLMIEPFTVENGLLTPTLKLKRPQTAKKFDHLIKEMYAETRKTSTLMAKL
modifications: Pestalotiopsis fici W106-1
notes: Pestalotiopsis fici W106-1 carboxylate reductase
B5: SEQ ID NO: 199: Caenorhabditis elegans carboxylate reductase (protein)
chain: MVDESDVKSALNGHDRPFTITLAIVLLKIVFFIYDVVTFIPFKIFADPAEKLEKSERVKAEPDNGDPTTPWKNVSAKDGLMNSSFEGIHDLGTQWEECVRRYGNQPCMGTREVLKVHKEKQSNGKIFEKWQMGDYHWRSYAQVDKRVNMIASGLTSLGQQEKEPIILFAETREEWMTTALACMKMNFPIATMYATLGDEAVQFAINEVGAKTIFTSEALISKVKKAMSNGATSIENIIFFDSVDPASRGESVDVDLPFTLLSFDQLLSRGEPYPVPTRSKKDDLAFIMYTSGTTGNPKGVMISHQNIVAVTAGQAFNIVLGPDDRYIGYLPLAHILEVCAEMVVFTKGVRIGYSSAQTLFDRAPKIMKGEHGDCWVLQPTLMACVPAVMDRIFKAVIDEVNANSELFKQLFKTCYERKRSRYEEGYTSFILNKLVFNRIGKLLGGKVRQILSGGAPLSPETQRFMNICFCCPVVQGYGLTETCGGGTIADIHDLSTGTVGPPLTCCEILLQEWAEAGYSPKNDPPQGEILISGPNVALGYFKNDEKTKEEFVKVNGKTFFATGDIGEFREDGSLKIIDRKKDLLKLAHGEYISLGKVETNLLTNPNVDNVCVYGDSNKSFLVALVVPNQKNLTQLASKAGASNDNFEKLCEDKKVVEALQKELAQYGASKLQRVEIPQKIFICHEPWTPASGLLTEALKLKRKNIEKAFRKELDELYK
modifications: Caenorhabditis elegans
notes: Caenorhabditis elegans carboxylate reductase

Assay: In vivo carboxylate reductase screening, substrate consumption by LC-MS, heptanedioate
Type: cell-based, Escherichia coli
Conditions: 541 enzymes screened in vivo
Experimental: To screen carboxylate reductases in vivo, […] T7- pUC expression vectors was co-transformed into T7 Express lysY/Iq with the phosphopantetheinyl transferase sfp from Bacillus subtilis on a T7-pCDF expression vector. Biological duplicates of the resulting strains were incubated in 0.5 mL of terrific broth containing either 1 g/L heptanedioate or 1 g/L monomethyl heptanedioate and supplemented with 0.4 mM IPTG in 96-well deep well plates. The plates were incubated for 30 h at 30° C. in a shaking incubator. The cells were then pelleted, and culture supernatants from the same strains in media containing either heptanedioate or monomethyl heptanedioate were combined. The combined supernatants were analyzed by LC-MS to determine the concentration of heptanedioate and monomethyl heptanedioate. Carboxylate reductase activity on heptanedioate or monomethyl heptanedioate was reflected by consumption of the respective substrate in the medium.

Row | Molecule | substrate preference, heptanedioic acid to 7-oxoheptanoate
1 | B1 | preferred acting upon heptanedioic acid to form 7-oxoheptanoate
2 | B2 | preferred acting upon heptanedioic acid to form 7-oxoheptanoate
3 | B3 | preferred acting upon heptanedioic acid to form 7-oxoheptanoate
4 | B4 | preferred acting upon heptanedioic acid to form 7-oxoheptanoate
5 | B5 | preferred acting upon heptanedioic acid to form 7-oxoheptanoate
